Here are results for 1 molecule from PMC10156788, “Molecular architecture of the Gαi-bound TRPC5 ion channel” (Nature Communications, 2023).

Experiment [1] addresses T1, EGFP-tagged human TRPC5EM (amino acids 1 to 765) in lipid nanodiscs (human, UniProt Q9UL62 1-765).
T1 sequence (looked up): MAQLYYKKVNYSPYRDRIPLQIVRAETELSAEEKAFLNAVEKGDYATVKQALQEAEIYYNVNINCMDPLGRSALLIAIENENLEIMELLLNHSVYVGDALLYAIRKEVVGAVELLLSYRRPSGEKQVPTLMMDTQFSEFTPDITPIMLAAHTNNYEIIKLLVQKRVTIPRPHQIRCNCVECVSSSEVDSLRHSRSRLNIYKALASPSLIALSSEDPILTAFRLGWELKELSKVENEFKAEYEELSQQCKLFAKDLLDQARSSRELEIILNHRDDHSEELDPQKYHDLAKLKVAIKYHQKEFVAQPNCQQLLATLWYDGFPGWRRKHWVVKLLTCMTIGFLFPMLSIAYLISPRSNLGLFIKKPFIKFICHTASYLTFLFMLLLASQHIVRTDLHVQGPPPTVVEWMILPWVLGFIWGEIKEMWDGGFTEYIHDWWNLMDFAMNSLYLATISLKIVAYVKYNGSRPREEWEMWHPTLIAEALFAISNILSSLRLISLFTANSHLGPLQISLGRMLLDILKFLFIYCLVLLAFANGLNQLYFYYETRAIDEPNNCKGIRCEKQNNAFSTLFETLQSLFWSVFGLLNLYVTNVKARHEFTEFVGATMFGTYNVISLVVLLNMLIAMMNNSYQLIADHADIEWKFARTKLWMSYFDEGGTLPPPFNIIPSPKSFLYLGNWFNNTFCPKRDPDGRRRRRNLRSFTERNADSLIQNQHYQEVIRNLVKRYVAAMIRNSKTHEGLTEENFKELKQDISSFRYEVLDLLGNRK
Kind of experiment: cell-based or functional assay.

For experiment [2], the target named is T1, EGFP-tagged human TRPC5EM (amino acids …). Kind of experiment: BLI; BLItz, AR2G biosensors; EGFP-tagged TRPC5 in lipid nanodiscs (500 nM) immobilised by NHS/EDC; GTP-activated Gαi3^Q204L flowed at 0.31-1.25 μM, 300 s association, 300 s dissociation; 20 mM HEPES-NaOH pH 8.0, 150 mM NaCl; fitted by specific binding with Hill slope. To be noted: both partners purified.

In experiment [3] the target is T2, human TRPC5 (amino acids 1 to 765, TRPC5EM) in lipid nanodiscs, EGFP and Twin-StrepII-tag removed (human, UniProt Q9UL62 1-765).
T2 construct: transient receptor potential canonical 5 (TRPC5), human, amino acids 1 to 765; C-terminal loop region (residues 766-973) truncated; Tags removed with HRV-3C protease after the complex with Gαi3 was formed; residues of the HRV-3C site may be left at the C-terminus; Reconstituted in MSP2N2 nanodiscs; also called TRPC5_(Class1); TRPC5_(Class2); source: HEK293S GnTI- suspension cells (BacMam), …
T2 sequence (looked up): T1 sequence (looked up)
In words: cryo-EM structure; TRPC5EM in MSP2N2/soybean lipid nanodiscs, alone or mixed with GTP-activated N-myristoylated Gαi3^Q204L at Gα:TRPC5 monomer = 6:1; Buffer A (50 mM Tris-HCl pH 8.0, 150 mM NaCl, 1 mM DTT) with 5 μM GTP; 2.5 mM CaCl2 added before vitrification; no PIP2. To be noted: both partners purified.

B1: N-myristoylated human Gαi3^Q204L, GTP-activated (natural protein)
chain: TLSAEDKAAVERSKMIDRNLREDGEKAAKEVKLLLLGAGESGKSTIVKQMKIIHEDGYSEDECKQYKVVVYSNTIQSIIAIIRAMGRLKIDFGEAARADDARQLFVLAGSAEEGVMTPELAGVIKRLWRDGGVQACFSRSREYQLNDSASYYLNDLDRISQSNYIPTQQDVLRTRVKTTGIVETHFTFKDLYFKMFDVGGLRSERKKWIHCFEGVTAIIFCVALSDYDLVLAEDEEMNRMHESMKLFDSICNNKWFTETSIILFLNKKDLFEEKIKRSPLTICYPEYTGSNTYEEAAAYIQCQFEDLNRRKDTKEIYTHFTCATDTKNVQFVFDAVTDVIIKNNLKE
modifications: myristoylation at the N-terminal glycine
notes: hexa-histidine tag inserted between M119 and T120; Incubated with 1 mM GTP for 1 h at 30 °C before use; The His tag is internal and no cleavage is described; Myristoylation of the N-terminal glycine implies loss of the first methionine; also called myristoylated Gαi3^Q204L
As for B1, the “fold increase in open probability (Po) by Gαi3 (14.6 μM against 0.07 μM) at physiological PIP2, excised inside-out patch” value in experiment [1] was roughly 7 fold. The molecule further returned a Kd in experiment [2] of 530 nM. Besides, in experiment [3], the “stoichiometry N” value is no more than 4 Gαi3 per TRPC5 tetramer.
